Each block holds one molecule with its values, some of them ahead of it.
What was measured:
Assay type in all cases: cell-based
LTβR = target: T1, LTβR (Homo sapiens, UniProt P25942+P36941); assay: Recruitment assay with hybrid receptor (CD40 extracellular domain, LTβR transmembrane and intracellular domain); conditions: 293T cells
T1 construct: cDNA fragments encoding for the transmembrane and cytoplasmic domains of the LTβR, TACI, the p75TNF receptor, CD27; expressed in transfected cells; host or cells: 293T
T1 sequence (P25942+P36941 fused): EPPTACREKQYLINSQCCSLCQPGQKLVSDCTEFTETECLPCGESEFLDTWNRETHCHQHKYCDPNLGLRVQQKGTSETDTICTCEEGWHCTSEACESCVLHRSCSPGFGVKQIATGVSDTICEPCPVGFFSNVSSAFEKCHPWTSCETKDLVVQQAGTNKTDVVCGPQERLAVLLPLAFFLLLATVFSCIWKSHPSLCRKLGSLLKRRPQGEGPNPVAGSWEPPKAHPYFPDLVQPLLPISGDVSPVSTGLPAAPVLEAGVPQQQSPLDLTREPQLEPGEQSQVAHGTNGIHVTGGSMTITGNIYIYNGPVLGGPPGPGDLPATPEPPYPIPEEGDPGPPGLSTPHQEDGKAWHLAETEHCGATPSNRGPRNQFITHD
Protocol: (§1) The recruitment of TRAF to CD40 can be quantitatively measured using the assay described in example 1. For that purpose, the assay conditions were adjusted in such a way that TRAF expression was in significant excess over the expression of CD40. This was the case when the TRAF expression plasmid was used at a two to three fold excess over the CD40 expression plasmid. The CD40 bound TRAF concentration was measured as described in example 1. A reference extract containing CD40/TRAF complexes served as a standard in each assay. This standard extract consisted of a large pool extract from cells that had been co-transfected with the plasmids encoding CD40/TRAF1, CD40/TRAF2, CD40/TRAF3, CD40/TRAF5 and CD40/TRAF6. The extracts were tested for the presence of CD40/TRAF complexes and the complex concentrations in each extract were arbitrarily defined as 1000 U/ml. The extracts were frozen in small aliquots and kept at −80° C. until further use. By comparing unknown samples to these extracts, it was possible to determine the relative CD40-TRAF complex concentrations in arbitrary units. The necessary normalization for sample-to-sample variations in the CD40 expression was calculated with the following formula: […]
Recruitment of various TRAFs to receptors different to CD40, was tested by the recruitment assay described in example 1 by transforming cells with expression plasmids encoding hybrids receptors comprising the extracellular domain of CD40 and transmembrane and intracellular domain of anyone of the following receptors: BCMA (Madry et al. 1998 and Hatzoglou et al. 2000) the LTβR-receptor (Mosialos et al. 1995, Crowe et al. 1994, Nakano et al. 1996), TACI (von Bulow et al. 1997, Xia et al. 2000) the p75TNFR (Rothe et al. 1994) and the CD27 (Gravestein et al. 1998, Akiba et al. 1998) (for details of constructs see example 7). Measurement of TRAF recruitment to the signalling domains of BCMA the LTβR-receptor TACI the p75TNFR or the CD27 was carried out by co-transfecting 293T cells with a plasmid encoding anyone of the above hybrid receptors together with a plasmid encoding TRAF and measurement of the TRAF/Receptor complex using the ELISA sandwich described in example 1 and the quantitation as described in example 3. The assay with the hybrid receptors is schematically represented in FIG. 4A. The results shown in FIG. 4B indicate that, using the assay monitoring recruitment in intact cells, any TRAF recruiting receptor of the TNF/NGF family can be examined with the same antibody sandwich assay described in example 1 and the amount of TRAF-receptor/CD40 hybrid complex can be monitored as described in example 3. […] Recruitment of TRAF3 to all the receptors tested is similar. […]

TACI = target: T2, TACI (Homo sapiens, UniProt O14836+P25942); assay: Recruitment assay with hybrid receptor (CD40 extracellular domain, TACI transmembrane and intracellular domain); conditions: 293T cells
T2 construct: cDNA fragments encoding for the transmembrane and cytoplasmic domains of the LTβR, TACI, the p75TNF receptor, CD27; expressed in transfected cells; host or cells: 293T
T2 sequence (P25942+O14836 fused, species assumed): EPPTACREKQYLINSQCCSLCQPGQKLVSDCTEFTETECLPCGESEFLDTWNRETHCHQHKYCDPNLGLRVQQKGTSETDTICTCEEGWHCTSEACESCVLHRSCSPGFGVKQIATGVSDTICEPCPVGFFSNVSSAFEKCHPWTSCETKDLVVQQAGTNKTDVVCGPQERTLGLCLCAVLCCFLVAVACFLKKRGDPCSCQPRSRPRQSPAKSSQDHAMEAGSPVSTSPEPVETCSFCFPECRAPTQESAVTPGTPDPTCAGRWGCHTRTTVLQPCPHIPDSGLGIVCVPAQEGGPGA
Protocol: as §1

CD40 mutants = target: T3, CD40 mutants (Homo sapiens, UniProt P25942, E235A); assay: Recruitment assay in intact cells with CD40 mutants (deletions or point mutations in TRAF binding sites); conditions: E235A, relative to wild type CD40
T3 construct: expressed in transfected cells; host or cells: 293T
T3 sequence (P25942 21-277 E235A): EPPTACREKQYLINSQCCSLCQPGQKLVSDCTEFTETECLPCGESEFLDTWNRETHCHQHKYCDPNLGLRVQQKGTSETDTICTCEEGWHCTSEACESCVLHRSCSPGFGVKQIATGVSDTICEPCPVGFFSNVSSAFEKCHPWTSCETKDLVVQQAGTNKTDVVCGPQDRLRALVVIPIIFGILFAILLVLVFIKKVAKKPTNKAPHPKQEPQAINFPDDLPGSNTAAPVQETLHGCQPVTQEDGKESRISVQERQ
Protocol: The lysates were cleared by centrifugation at 15000 G at 4° C. in a micro-centrifuge, 3 fold serially diluted (with lysis buffer containing 1% bovine serum albumin) and then every diluted sample incubated for 2 hours at room temperature (or overnight) in wells of ELISA microtiter plates coated with a mAb (Ro1) specific to the CD40 extra-cellular domain (Schwabe et al. 1997). For control purposes, instead of the wild type CD40 plasmid, a plasmid encoding a CD40 mutant lacking the entire signaling domain was used for transfection and transient expression (CD401-222, FIG. 1B). Following incubation exhaustive washes were carried out on the microtiter plates to remove any unbound protein [about 10 washing steps with PBS containing 0.05% Tween 20) PBS/Tween)]. To detect bound TRAF1, anti TRAF1 specific antibodies were loaded into the plates, incubated for about 3 hours at room temperature, […] by extensive washes to remove unbound antibody and detecting the bound antibody with an HRP conjugated secondary antibody. All antibodies (except when used as solid phase antibody) were diluted in PBS/Tween containing 1% BSA.
as §1
The quantitative version of the TRAF recruitment assay as described in example 3 was used to compare CD40 and various CD40 mutants with respect to their TRAF recruitment behaviour. TRAF 1, 2, 3, 5 and 6 were examined. […] Additional deletion of the TRAF1/2/3/5 binding motif PXQXT254 at amino acid position 250 to 254 reduced the binding of all 5 TRAFs test to background levels (1-254EA in FIG. 3B). […]

BCMA = target: T4, BCMA (Homo sapiens, UniProt P25942+Q02223); assay: Recruitment assay with hybrid receptor (CD40 extracellular domain, BCMA transmembrane and intracellular domain); conditions: 293T cells
T4 construct: transmembrane and intracellular domain of anyone of the following receptors: BCMA; expressed in transfected cells; host or cells: 293T
T4 sequence (P25942+Q02223 fused, species assumed): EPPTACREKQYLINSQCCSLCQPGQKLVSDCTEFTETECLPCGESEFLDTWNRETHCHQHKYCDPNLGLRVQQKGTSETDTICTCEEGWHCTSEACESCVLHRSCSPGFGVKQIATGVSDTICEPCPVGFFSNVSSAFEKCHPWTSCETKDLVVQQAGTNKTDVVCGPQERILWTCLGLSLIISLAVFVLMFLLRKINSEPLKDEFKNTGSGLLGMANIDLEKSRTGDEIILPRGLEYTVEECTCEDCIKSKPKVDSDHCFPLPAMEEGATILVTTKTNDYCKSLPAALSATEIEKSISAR
Protocol: as §1

CD27 = target: T5, CD27 (Homo sapiens, UniProt P25942+P26842); assay: Recruitment assay with hybrid receptor (CD40 extracellular domain, CD27 transmembrane and intracellular domain); conditions: 293T cells
T5 construct: cDNA fragments encoding for the transmembrane and cytoplasmic domains of the LTβR, TACI, the p75TNF receptor, CD27; expressed in transfected cells; host or cells: 293T
T5 sequence (P25942+P26842 fused, species assumed): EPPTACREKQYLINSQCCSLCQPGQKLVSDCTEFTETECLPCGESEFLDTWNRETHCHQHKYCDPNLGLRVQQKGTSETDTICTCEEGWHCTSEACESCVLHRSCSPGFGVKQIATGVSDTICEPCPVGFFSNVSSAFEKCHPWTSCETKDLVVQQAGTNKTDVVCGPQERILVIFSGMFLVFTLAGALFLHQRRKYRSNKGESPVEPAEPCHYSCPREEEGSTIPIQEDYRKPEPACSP
Protocol: as §1

p75TNFR = target: T6, p75TNFR (Homo sapiens, UniProt P20333+P25942); assay: Recruitment assay with hybrid receptor (CD40 extracellular domain, p75TNFR transmembrane and intracellular domain); conditions: 293T cells
T6 construct: cDNA fragments encoding for the transmembrane and cytoplasmic domains of the LTβR, TACI, the p75TNF receptor, CD27; expressed in transfected cells; host or cells: 293T
T6 sequence (P25942+P20333 fused): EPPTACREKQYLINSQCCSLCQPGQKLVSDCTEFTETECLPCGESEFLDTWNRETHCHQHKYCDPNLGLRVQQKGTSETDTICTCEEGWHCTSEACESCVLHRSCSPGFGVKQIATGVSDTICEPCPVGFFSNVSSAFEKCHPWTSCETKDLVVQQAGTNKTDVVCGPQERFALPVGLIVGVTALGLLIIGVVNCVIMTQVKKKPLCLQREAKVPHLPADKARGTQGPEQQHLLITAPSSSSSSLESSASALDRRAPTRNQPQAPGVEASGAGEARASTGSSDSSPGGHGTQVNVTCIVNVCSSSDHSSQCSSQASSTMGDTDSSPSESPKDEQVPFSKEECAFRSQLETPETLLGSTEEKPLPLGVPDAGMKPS
Protocol: as §1, with “By comparing unknown samples to these extracts, it was possible to determine the relative CD40-TRAF complex concentrations in arbitrary units.” left out
Recruitment of various TRAFs to receptors different to CD40, was tested by the recruitment assay described in example 1 by transforming cells with expression plasmids encoding hybrids receptors comprising the extracellular domain of CD40 and transmembrane and intracellular domain of anyone of the following receptors: BCMA (Madry et al. 1998 and Hatzoglou et al. 2000) the LTβR-receptor (Mosialos et al. 1995, Crowe et al. 1994, Nakano et al. 1996), TACI (von Bulow et al. 1997, Xia et al. 2000) the p75TNFR (Rothe et al. 1994) and the CD27 (Gravestein et al. 1998, Akiba et al. 1998) (for details of constructs see example 7). Measurement of TRAF recruitment to the signalling domains of BCMA the LTβR-receptor TACI the p75TNFR or the CD27 was carried out by co-transfecting 293T cells with a plasmid encoding anyone of the above hybrid receptors together with a plasmid encoding TRAF and measurement of the TRAF/Receptor complex using the ELISA sandwich described in example 1 and the quantitation as described in example 3. […]

CD40 = target: T7, CD40 (Homo sapiens, UniProt P25942); assay: Recruitment of NIK to CD40 via TRAF2 in 293T cells, anti-CD40 capture ELISA with anti NIK detection
T7 construct: expressed in transfected cells; host or cells: HEK 293T
T7 sequence (P25942 21-277): as the sequence (P25942 21-277 E235A) above, with A215E counted along it
Description: The assay described in example 1 can be used to measure recruitment of signal proteins, e.g. NIK (a downstream mediator in the NF-κB pathway Malinin et al. 1997) to a cytokine receptor, e.g. CD40 via an adaptor protein e.g. TRAF2. Expression plasmids encoding CD40, TRAF2, NIK (in pcDNA3.1) and myc-tagged IKKα were co-transfected into 293T (at a ratio of 1:1.75:1.75:1.75 respectively). Empty vector was used to equalize the amount of transfected DNA. The transfection was done as described for example 1. Twenty seven hours later the cells were extracted as described in example 1. The lysates were incubated with ELISA plates coated with an anti CD40 mAb (R01, Schwabe et al. 1997). After two hours the plates were washed with PBS/tween and developed with a commercially available rabbit anti NIK antibody (Santa Cruz at 1:100 dilution, SC-6363) and HRP-labeled goat anti rabbit Ig antibody (Pharmingen). The recruitment assay for NIK is schematically represented in FIG. 5A.

recruitment to LTβR compared with the other receptors tested (LTβR): similar | recruitment to TACI compared with the other receptors tested (TACI): similar | recruitment to CD40 mutant E235A (CD40 mutants): reduced recruitment | recruitment to BCMA compared with the other receptors tested (BCMA): similar | recruitment to CD27 compared with the other receptors tested (CD27): similar | recruitment to p75TNFR compared with the other receptors tested (p75TNFR): similar
B1: TRAF3: TNF receptor associated factor 3, adaptor protein expressed from pcDNA3 (protein, UniProt Q13114 1-568, looked up)
chain: MESSKKMDSPGALQTNPPLKLHTDRSAGTPVFVPEQGGYKEKFVKTVEDKYKCEKCHLVLCSPKQTECGHRFCESCMAALLSSSSPKCTACQESIVKDKVFKDNCCKREILALQIYCRNESRGCAEQLMLGHLLVHLKNDCHFEELPCVRPDCKEKVLRKDLRDHVEKACKYREATCSHCKSQVPMIALQKHEDTDCPCVVVSCPHKCSVQTLLRSELSAHLSECVNAPSTCSFKRYGCVFQGTNQQIKAHEASSAVQHVNLLKEWSNSLEKKVSLLQNESVEKNKSIQSLHNQICSFEIEIERQKEMLRNNESKILHLQRVIDSQAEKLKELDKEIRPFRQNWEEADSMKSSVESLQNRVTELESVDKSAGQVARNTGLLESQLSRHDQMLSVHDIRLADMDLRFQVLETASYNGVLIWKIRDYKRRKQEAVMGKTLSLYSQPFYTGYFGYKMCARVYLNGDGMGKGTHLSLFFVIMRGEYDALLPWPFKQKVTLMLMDQGSSRRHLGDAFKPDPNSSSFKKPTGEMNIASGCPVFVAQTVLENGTYIKDDTIFIKVIVDTSDLPDP
modifications: full-length
notes: TNF receptor associated factor 3, adaptor protein expressed from pcDNA3

recruitment of NIK to CD40 when IKK was co-expressed (CD40; myc-tagged IKKα co-transfected): clearly improved | recruitment of NIK to CD40, dependence on adaptor (CD40; with or without TRAF2 co-transfection): TRAF2 dependent
B2: NIK: kinase, a downstream mediator in the NF-κB pathway, recruited to CD40 via TRAF2 (protein, UniProt Q99558 1-947, looked up)
Mitogen-activated protein …: MAVMEMACPGAPGSAVGQQKELPKAKEKTPPLGKKQSSVYKLEAVEKSPVFCGKWEILNDVITKGTAKEGSEAGPAAISIIAQAECENSQEFSPTFSERIFIAGSKQYSQSESLDQIPNNVAHATEGKMARVCWKGKRRSKARKKRKKKSSKSLAHAGVALAKPLPRTPEQESCTIPVQEDESPLGAPYVRNTPQFTKPLKEPGLGQLCFKQLGEGLRPALPRSELHKLISPLQCLNHVWKLHHPQDGGPLPLPTHPFPYSRLPHPFPFHPLQPWKPHPLESFLGKLACVDSQKPLPDPHLSKLACVDSPKPLPGPHLEPSCLSRGAHEKFSVEEYLVHALQGSVSSGQAHSLTSLAKTWAARGSRSREPSPKTEDNEGVLLTEKLKPVDYEYREEVHWATHQLRLGRGSFGEVHRMEDKQTGFQCAVKKVRLEVFRAEELMACAGLTSPRIVPLYGAVREGPWVNIFMELLEGGSLGQLVKEQGCLPEDRALYYLGQALEGLEYLHSRRILHGDVKADNVLLSSDGSHAALCDFGHAVCLQPDGLGKSLLTGDYIPGTETHMAPEVVLGRSCDAKVDVWSSCCMMLHMLNGCHPWTQFFRGPLCLKIASEPPPVREIPPSCAPLTAQAIQEGLRKEPIHRVSAAELGGKVNRALQQVGGLKSPWRGEYKEPRHPPPNQANYHQTLHAQPRELSPRAPGPRPAEETTGRAPKLQPPLPPEPPEPNKSPPLTLSKEESGMWEPLPLSSLEPAPARNPSSPERKATVPEQELQQLEIELFLNSLSQPFSLEEQEQILSCLSIDSLSLSDDSEKNPSKASQSSRDTLSSGVHSWSSQAEARSSSWNMVLARGRPTDTPSYFNGVKVQIQSLNGEHLHIREFHRVKVGDIATGISSQIPAAAFSLVTKDGQPVRYDMEVPDSGIDLQCTLAPDGSFAWSWRVKHGQLENRP

recruitment to LTβR, folds higher than recruitment to CD40 (LTβR; CD40 as relative standard): about 152 fold | recruitment to CD40 mutant E235A (CD40 mutants): reduced recruitment
B3: TRAF5: TRAF5 adaptor protein, expressed as tagged deletion mutant, amino acids 145 to 557 (protein, UniProt O00463 145-557, looked up, fragment)
chain: REPVLRKDLKEHLSASCQFRKEKCLYCKKDVVVINLQNHEENLCPEYPVFCPNNCAKIILKTEVDEHLAVCPEAEQDCPFKHYGCAVTDKRRNLQQHEHSALREHMRLVLEKNVQLEEQISDLHKSLEQKESKIQQLAETIKKLEKEFKQFAQLFGKNGSFLPNIQVFASHIDKSAWLEAQVHQLLQMVNQQQNKFDLRPLMEAVDTVKQKITLLENNDQRLAVLEEETNKHDTHINIHKAQLSKNEERFKLLEGTCYNGKLIWKVTDYKMKKREAVDGHTVSIFSQSFYTSRCGYRLCARAYLNGDGSGRGSHLSLYFVVMRGEFDSLLQWPFRQRVTLMLLDQSGKKNIMETFKPDPNSSSFKRPDGEMNIASGCPRFVAHSVLENAKNAYIKDDTLFLKVAVDLTDLEDL
modifications: His tag
